The numbers were not newly measured in article PMC2709459 (Biochimica et biophysica acta, 2008), which cites them from elsewhere.

This series concerns the target C5aR. Conditions: C5aR in transfected CHO cells.

B1: C5a: complement C5a fragment, anaphylatoxin ligand of C5aR (protein, UniProt P01031 678-751, looked up)
C5a anaphylatoxin: TLQKKIEEIAAKYKHSVVKKCCYDGACVNNDETCEQRAARISLGPRCIKAFTECCVVASQLRANISHKDMQLGR
modifications: C5a anaphylatoxin
Usually Kd stands for a measure of binding affinity in units of concentration. Consider B1, for which the Kd is 10 nM.
